Here are results for one protein from US20040014151A1 (published 2004).

The data set concerns the molecule itself. As to the kind of experiment: SEC-HPLC of IMAC-purified protein from cpcE or cpcF mutant. A general note: SEC sorts molecules by how far they enter the pores of the column.

Protocol: Size Exclusion Chromatography-High Performance Liquid Chromatography—Although IMAC-purified and dialyzed samples (see above) could be used with no obvious effect on the results, proteins to be analyzed by SEC-HPLC were generally dialyzed again in 50 mM Na—PO₄ pH 7.0, 50 mM NaCl, 0.5 mM DTT. […] A mobile phase of 50 mM Na—PO₄ pH 7.0 was flowed at 0.8 ml min⁻¹ through Bio-Sil 250 (Bio-Rad Laboratories, Hercules, Calif.) guard column (80×7.8 mm) and column (300×7.8 mm) maintained at 25° C. For analytical separations, 50 to 200 μg of phycocyanin was loaded [based on absorbance at the peak near 621 nm and using a molar extinction coefficient of 290,000 M⁻¹ cm⁻¹ per monomer (29)]. Molecular size calibration utilized bovine gamma globulin, 158 kDa; chicken ovalbumin, 44 kDa; horse myoglobin, 17 kDa; vitamin B12, 1.35 kDa (Bio-Rad gel filtration standards). The void volume was determined with blue dextran, 2000 kDa (Pharmacia Biotech, Piscataway, N.J.). Preparative separations were performed with loads of 0.5 to 1 mg phycocyanin.

B1: His-tagged C-phycocyanin β subunit, holo-HTβ (other, Anabaena sp. PCC7120, UniProt P07120 1-173, looked up)
chain: MTLDVFTKVVSQADSRGEFLSNEQLDALANVVKEGNKRLDVVNRITSNASAIVTNAARALFEEQPQLIAPGGNAYTNRRMAACLRDMEIILRYVTYAILAGDASVLDDRCLNGLRETYQALGTPGSSVAVGVQKMKDAAVGIANDPNGITKGDCSQLISEVASYFDRAAAAVG
modifications: two phycocyanobilins (PCB); methylated Asn72
notes: Encoded by pBS262, expressed in Anabaena sp; also called An262; not shown: 24-residue N-terminal extension with 6xHis tag and TEV protease site
As for B1, the binding result is “binds”.
